Data taken from the supplement of paper PMC10567573.
± gives the standard deviation.

Assay: protein stability index of a GFP-peptide fusion (GPS, HEK-293T) (PSI 1-6); higher = more stable
Conditions: c terminus: a fixed tail appended
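Further: 24-mer peptide tiles fused after GFP, lentivirally expressed, FACS-sorted into six equal bins by GFP/DsRed ratio, decoded by Illumina sequencing, PSI is the read-weighted mean bin number.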

Sequence | protein stability index (treatment: DMSO) | protein stability index (treatment: MLN4924 1 uM, 8 h)
EQQRCLLLARLRELEQQIWKERDE [TRIM15] | 3.03 ± 0.28 | 3.29 ± 0.36
PKTVQQPTESEPVTINIQDLLSCS [MATN2] | 4.35 ± 0.17 | 4.32 ± 0.16
VSFLRSGTKLIFRRRPRQKEAGLS [C2CD2L] | 2.75 ± 0.74 | 3.1 ± 0.24
GATYLELHSLDDFYIGKYFGGVLE [RHOBTB3] | 2.6 ± 0.61 | 2.32 ± 0.23
IYRHRIPSTICFGQGAARGFKSNK [ZNF511] | 3 ± 0.37 | 3.64 ± 0.13
ATTASPAKVDSSGVIDLFGDAFGS [SNAP91] | 4.06 ± 0.2 | 4.42 ± 0.15
EFPEDPEFEAVVRQAELAIERCIF [PI4K2A] | 2.72 ± 0.1 | 2.96 ± 0.22
LRRKEQLWEKLAKQGELPREVRRA [NOP53] | 3.58 ± 0.18 | 3.7 ± 0.36
AKGLAESLELPKAIQDQLPRLQQL [FANCE] | 3.95 ± 0.12 | 4.15 ± 0.3
DFHYCDREHVCRKDQRNPPSLGRV [RBMY1A1] | 3.27 ± 0.27 | 3.8 ± 0.4
NYLAEHCPPLHIPGSMSEVQELCK [TNNI2] | 3.91 ± 0.19 | 3.78 ± 0.11
GKKKISKADIGAPSGFKHVSHVGW [WAS] | 3.06 ± 0.24 | 3.1 ± 0.15
ALLDQIRQGIQLNKTPGAPESSAL [WAS] | 3.3 ± 0.16 | 3.15 ± 0.53
RFHDPSPAQSHTLQANDVFHKQQW [NET1] | 3.33 ± 0.11 | 3.4 ± 0.29
SFAQLKNLKWLDLKDNPLDPVLAK [LRRC59] | 2.98 ± 0.096 | 2.96 ± 0.33
KPTVFIGVPQIWEKIHEMVKKNSA [ACSBG2] | 2.75 ± 0.34 | 2.47 ± 0.81
EAVESRGGVPGGCVLVPRADLRLG [SMAD6] | 4.07 ± 0.47 | 4.34 ± 0.17
LGGFRHKVTGVEYHNAGTQTVPKR [IQUB] | 4.03 ± 0.36 | 4.1 ± 0.3
DRYIAICNPLRYSVLMGHGVCMGL [OR10K2] | 2.54 ± 0.27 | 2.43 ± 0.43
KVKWTHEEDEQLRALVRQFGQQDW [MYBL2] | 3.19 ± 0.44 | 3.44 ± 0.12
WLPESDCETVTCCLFSERDAAGAP [SMAD6] | 3.72 ± 0.58 | 3.96 ± 0.27

Sequence | protein stability index (treatment: DMSO) | protein stability index (treatment: MLN4924 1 uM, 8 h)
NPFKERICRVFSTSPAKDSLSFED [CIB1] | 2.77 ± 0.21 | 2.75 ± 0.2
GNDFTQNAGTGLVINQADVRNNRS [PLD5] | 4.58 ± 0.35 | 4.55 ± 0.35
KLRFNRKKKGMYRKAITEAANAAR [PWWP2B] | 3.42 ± 0.23 | 3.29 ± 0.2
SVDIWAIGCVFAELLTGQPLWPGK [CDKL4] | 2.6 ± 1.3 | 3.02 ± 0.97
GDVAIKLKFLEENKIKVMHKQLLL [ARFIP2] | 2.25 ± 0.31 | 2.12 ± 0.26
QNPQITQLKIAANPFAKGFRENGR [TBX6] | 3.33 ± 0.29 | 3.35 ± 0.46
DYDDGFSMKHTATARFQRNHRLIS [SMARCE1] | 2.99 ± 0.1 | 3.19 ± 0.31
VDWDEEYPPQMGEEYSQIIYSTKL [BTBD10] | 3.49 ± 0.15 | 3.55 ± 0.41
QSVENCPEDLAQLEELIDMAVLEE [RPAIN] | 5.27 ± 0.15 | 5.27 ± 0.21
GIVLQGPALCFAAAIFSLFFVPLS [TMEM175] | 2.89 ± 0.34 | 2.83 ± 0.17
GEVIHCKLRAMKELSEAAEAQHGP [STX11] | 4.03 ± 0.38 | 4.22 ± 0.11
YANAVLQALSNVPPLRNYFLEEDN [USP39] | 2.19 ± 0.072 | 2.12 ± 0.24
TSQGQVRMRLFGQRCQKCSWSQYE [RTP4] | 2.4 ± 0.37 | 2.01 ± 0.39
EDVPLAAKLVDLPCVIESLRTLDK [TAF7L] | 3.64 ± 0.29 | 3.48 ± 0.21
QVYYFGPCGKYNAMVLELLGPSLE [CSNK1G1] | 3.52 ± 1.8 | 1.92 ± 0.25
PFAPEPTPPTTTAEIATASASAST [SNAP91] | 5.37 ± 0.16 | 5.41 ± 0.14
LTCNNYKNKMMVCQVGGIEALVRT [CTNNB1] | 2.32 ± 0.38 | 2.23 ± 0.56
QIDQIKRHSNVVILTTSNITEKID [TRIP13] | 3.21 ± 0.28 | 3.4 ± 0.19
KARSNSTLSKSEYMVIEEGGMNHS [KCNA3] | 4.57 ± 0.38 | 4.33 ± 0.15
SSNVSLSLFVLDQNDNAPEILYPA [PCDHGA10] | 2.48 ± 0.13 | 2.38 ± 0.29
